Data taken from the supplement of paper PMC5998384.

Assays:
HeLa Kyoto [1] = assay: solubility change mitosis vs G1/S (difference of NP-40 vs SDS log2 ratios) (log2 ratio difference); higher = more soluble in mitosis
HeLa Kyoto [2] = assay: melting temperature (median over replicates), in situ; higher = more thermally stable
HeLa Kyoto [3] = assay: thermal stability score vs G1/S (z-score of summed log2 fold changes over temperatures); higher = more thermally stable than in G1/S
HeLa Kyoto [4] = assay: solubility in G1/S (NP-40 vs SDS abundance) (log2 ratio); higher = more soluble; details: cell cycle stage: G1/S
[5] = cell cycle stage: early G1 (4.5 h after nocodazole release)
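Throughout, for melting temperature (median over replicates), in situ: HeLa Kyoto cells synchronized by double thymidine or nocodazole block, proteins quantified by TMT10plex mass spectrometry, three independent biological replicates.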
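Throughout, for solubility change mitosis vs G1/S (difference of NP-40 vs SDS log2 ratios): synchronized HeLa Kyoto cells (double thymidine block for G1/S, nocodazole release for mitosis), protein amounts in NP-40 versus SDS lysates quantified by mass spectrometry, three biological replicates.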
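Throughout, for solubility in G1/S (NP-40 vs SDS abundance): HeLa Kyoto cells arrested at G1/S by double thymidine block, proteins quantified by TMT10plex mass spectrometry in mild NP-40 versus SDS extracts, three biological replicates.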
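Throughout, for thermal stability score vs G1/S (z-score of summed log2 fold changes over temperatures): synchronized HeLa Kyoto cells, proteins quantified by TMT10plex mass spectrometry, three biological replicates, mitosis taken 0.5 h after nocodazole release, G1/S directly after double thymidine block.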

Sequence of NARFL (chain, as listed by the source): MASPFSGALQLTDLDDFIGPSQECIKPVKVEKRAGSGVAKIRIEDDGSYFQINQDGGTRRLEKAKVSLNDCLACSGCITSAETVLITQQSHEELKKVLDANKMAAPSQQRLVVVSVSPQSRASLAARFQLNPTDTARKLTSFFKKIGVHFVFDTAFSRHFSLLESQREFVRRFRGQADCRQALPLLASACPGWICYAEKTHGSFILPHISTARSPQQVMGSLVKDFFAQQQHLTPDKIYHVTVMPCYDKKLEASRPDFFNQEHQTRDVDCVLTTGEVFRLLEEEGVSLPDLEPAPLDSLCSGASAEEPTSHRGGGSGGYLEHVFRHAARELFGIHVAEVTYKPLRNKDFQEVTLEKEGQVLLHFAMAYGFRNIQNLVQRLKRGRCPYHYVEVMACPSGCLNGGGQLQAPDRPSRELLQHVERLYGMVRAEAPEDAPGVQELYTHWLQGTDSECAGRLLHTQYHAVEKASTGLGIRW
Sequence of OXCT1 (chain, as listed by the source): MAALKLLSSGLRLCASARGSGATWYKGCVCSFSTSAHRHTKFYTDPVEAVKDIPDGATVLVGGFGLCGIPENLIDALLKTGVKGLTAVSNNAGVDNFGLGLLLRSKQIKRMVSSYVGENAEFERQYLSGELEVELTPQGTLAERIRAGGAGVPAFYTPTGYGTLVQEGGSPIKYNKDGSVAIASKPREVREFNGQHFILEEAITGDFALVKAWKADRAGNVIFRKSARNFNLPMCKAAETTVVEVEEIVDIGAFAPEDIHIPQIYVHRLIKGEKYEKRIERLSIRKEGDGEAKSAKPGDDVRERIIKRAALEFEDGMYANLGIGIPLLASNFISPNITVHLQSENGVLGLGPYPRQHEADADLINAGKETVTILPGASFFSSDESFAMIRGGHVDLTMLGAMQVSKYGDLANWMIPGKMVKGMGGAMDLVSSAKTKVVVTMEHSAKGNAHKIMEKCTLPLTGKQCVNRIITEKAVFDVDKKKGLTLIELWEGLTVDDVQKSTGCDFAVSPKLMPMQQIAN
Sequence of NRBP1 (chain, as listed by the source): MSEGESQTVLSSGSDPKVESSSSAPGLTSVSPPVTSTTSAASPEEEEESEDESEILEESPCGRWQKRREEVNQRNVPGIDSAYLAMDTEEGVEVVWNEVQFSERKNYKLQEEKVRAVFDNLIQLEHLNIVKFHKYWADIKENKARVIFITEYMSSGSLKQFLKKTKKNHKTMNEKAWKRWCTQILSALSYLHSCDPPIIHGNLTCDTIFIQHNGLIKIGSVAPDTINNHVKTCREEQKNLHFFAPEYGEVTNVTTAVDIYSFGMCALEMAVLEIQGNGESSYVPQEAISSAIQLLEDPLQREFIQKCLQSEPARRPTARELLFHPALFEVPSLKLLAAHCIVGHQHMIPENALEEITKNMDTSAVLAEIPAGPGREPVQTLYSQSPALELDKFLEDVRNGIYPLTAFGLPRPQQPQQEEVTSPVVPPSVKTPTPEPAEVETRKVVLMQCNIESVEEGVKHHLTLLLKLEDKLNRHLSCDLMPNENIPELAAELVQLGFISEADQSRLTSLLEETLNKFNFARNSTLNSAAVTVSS
Sequence of NDRG1 (chain, as listed by the source): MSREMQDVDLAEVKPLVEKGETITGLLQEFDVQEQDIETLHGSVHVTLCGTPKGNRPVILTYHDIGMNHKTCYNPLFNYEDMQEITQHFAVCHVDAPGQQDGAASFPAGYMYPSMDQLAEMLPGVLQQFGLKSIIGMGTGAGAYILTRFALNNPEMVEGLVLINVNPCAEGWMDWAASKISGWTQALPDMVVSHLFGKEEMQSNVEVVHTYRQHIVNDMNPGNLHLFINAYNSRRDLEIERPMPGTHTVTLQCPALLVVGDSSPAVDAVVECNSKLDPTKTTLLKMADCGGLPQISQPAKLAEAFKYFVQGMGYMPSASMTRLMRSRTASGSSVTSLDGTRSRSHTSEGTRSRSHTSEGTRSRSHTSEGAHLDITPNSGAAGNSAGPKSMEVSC
Sequence of NDRG3 (chain, as listed by the source): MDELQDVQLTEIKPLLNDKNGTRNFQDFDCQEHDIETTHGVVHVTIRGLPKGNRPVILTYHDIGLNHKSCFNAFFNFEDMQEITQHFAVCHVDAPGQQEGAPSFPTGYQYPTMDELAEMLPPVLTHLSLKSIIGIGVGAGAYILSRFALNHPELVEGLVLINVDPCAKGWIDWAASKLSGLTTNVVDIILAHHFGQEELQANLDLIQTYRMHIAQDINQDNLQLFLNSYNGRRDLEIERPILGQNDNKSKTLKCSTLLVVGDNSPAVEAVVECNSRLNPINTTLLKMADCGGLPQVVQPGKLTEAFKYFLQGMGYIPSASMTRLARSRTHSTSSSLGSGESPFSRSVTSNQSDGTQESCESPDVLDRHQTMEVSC
Sequence of NUDC (chain, as listed by the source): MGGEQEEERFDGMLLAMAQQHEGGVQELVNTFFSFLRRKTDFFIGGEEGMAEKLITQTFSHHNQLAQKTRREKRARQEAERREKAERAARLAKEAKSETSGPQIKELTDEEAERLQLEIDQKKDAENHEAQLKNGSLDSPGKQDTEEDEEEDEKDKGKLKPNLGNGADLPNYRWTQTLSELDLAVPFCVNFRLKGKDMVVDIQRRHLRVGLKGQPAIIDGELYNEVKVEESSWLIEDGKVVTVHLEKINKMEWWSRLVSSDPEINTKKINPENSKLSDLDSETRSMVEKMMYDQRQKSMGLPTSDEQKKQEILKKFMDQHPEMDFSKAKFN
Sequence of PELP1 (chain, as listed by the source): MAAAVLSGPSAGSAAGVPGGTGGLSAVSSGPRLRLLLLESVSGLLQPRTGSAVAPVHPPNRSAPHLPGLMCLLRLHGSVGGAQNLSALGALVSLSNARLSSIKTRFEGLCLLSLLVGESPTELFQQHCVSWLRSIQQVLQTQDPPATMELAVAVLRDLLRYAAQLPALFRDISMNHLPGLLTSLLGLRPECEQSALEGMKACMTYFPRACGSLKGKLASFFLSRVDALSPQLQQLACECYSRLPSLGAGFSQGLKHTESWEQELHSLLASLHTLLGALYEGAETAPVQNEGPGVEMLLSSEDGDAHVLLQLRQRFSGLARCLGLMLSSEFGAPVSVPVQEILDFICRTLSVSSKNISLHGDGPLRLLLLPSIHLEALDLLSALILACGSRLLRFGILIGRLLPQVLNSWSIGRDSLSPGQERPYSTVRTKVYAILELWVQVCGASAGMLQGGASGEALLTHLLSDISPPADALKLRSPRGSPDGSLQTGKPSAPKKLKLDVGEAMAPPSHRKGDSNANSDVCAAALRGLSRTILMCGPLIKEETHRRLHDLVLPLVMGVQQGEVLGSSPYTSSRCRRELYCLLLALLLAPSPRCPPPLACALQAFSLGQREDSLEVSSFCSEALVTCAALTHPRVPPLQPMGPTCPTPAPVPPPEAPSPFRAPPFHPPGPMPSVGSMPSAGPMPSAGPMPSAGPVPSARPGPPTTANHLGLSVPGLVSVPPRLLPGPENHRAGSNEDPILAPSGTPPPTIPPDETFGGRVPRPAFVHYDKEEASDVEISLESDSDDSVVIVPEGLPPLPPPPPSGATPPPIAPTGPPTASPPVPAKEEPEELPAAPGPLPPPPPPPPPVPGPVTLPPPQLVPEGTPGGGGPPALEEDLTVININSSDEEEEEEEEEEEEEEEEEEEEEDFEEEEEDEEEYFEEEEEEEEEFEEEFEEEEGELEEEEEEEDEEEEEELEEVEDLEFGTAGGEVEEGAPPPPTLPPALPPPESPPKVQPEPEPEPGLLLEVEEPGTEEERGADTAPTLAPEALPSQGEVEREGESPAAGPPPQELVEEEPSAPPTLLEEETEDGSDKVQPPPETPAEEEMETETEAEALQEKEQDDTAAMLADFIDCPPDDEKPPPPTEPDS

Substance	solubility change mitosis (log2) (HeLa Kyoto [1])	melting temperature (HeLa Kyoto [2]; cell cycle stage: G1/S) [°C]	melting temperature (HeLa Kyoto [2]; cell cycle stage: mitosis) [°C]	thermal stability score (HeLa Kyoto [3]; [5])	thermal stability score (HeLa Kyoto [3]; cell cycle stage: mitosis)	solubility in G1/S (log2) (HeLa Kyoto [4])
MWRLPRALCVHAAKTSKLSGPWSRPAAFMSTLLINQPQYAWLKELGLREENEGVYNGSWGGRGEVITTYCPANNEPIARVRQASVADYEETVKKAREAWKIWADIPAPKRGEIVRQIGDALREKIQVLGSLVSLEMGKILVEGVGEVQEYVDICDYAVGLSRMIGGPILPSERSGHALIEQWNPVGLVGIITAFNFPVAVYGWNNAIAMICGNVCLWKGAPTTSLISVAVTKIIAKVLEDNKLPGAICSLTCGGADIGTAMAKDERVNLLSFTGSTQVGKQVGLMVQERFGRSLLELGGNNAIIAFEDADLSLVVPSALFAAVGTAGQRCTTARRLFIHESIHDEVVNRLKKAYAQIRVGNPWDPNVLYGPLHTKQAVSMFLGAVEEAKKEGGTVVYGGKVMDRPGNYVEPTIVTGLGHDASIAHTETFAPILYVFKFKNEEEVFAWNNEVKQGLSSSIFTKDLGRIFRWLGPKGSDCGIVNVNIPTSGAEIGGAFGGEKHTGGGRESGSDAWKQYMRRSTCTINYSKDLPLAQGIKFQ [ALDH7A1]	-0.107	54.3	54	-0.224	-1.8	0.167
MWRSCLRLRDGGRRLLNRPAGGPSASMSPGPTIPSPARAYAPPTERKRFYQNVSITQGEGGFEINLDHRKLKTPQAKLFTVPSEALAIAVATEWDSQQDTIKYYTMHLTTLCNTSLDNPTQRNKDQLIRAAVKFLDTDTICYRVEEPETLVELQRNEWDPIIEWAEKRYGVEISSSTSIMGPSIPAKTREVLVSHLASYNTWALQGIEFVAAQLKSMVLTLGLIDLRLTVEQAVLLSRLEEEYQIQKWGNIEWAHDYELQELRARTAAGTLFIHLCSESTTVKHKLLKE [ATPAF2]	-0.295	56.8	56	-0.051	-1.43	0.104
MWRVKKLSLSLSPSPQTGKPSMRTPLRELTLQPGALTNSGKRSPACSSLTPSLCKLGLQEGSNNSSPVDFVNNKRTDLSSEHFSHSSKWLETCQHESDEQPLDPIPQISSTPKTSEEAVDPLGNYMVKTIVLVPSPLGQQQDMIFEARLDTMAETNSISLNGPLRTDDLVREEVAPCMGDRFSEVAAVSEKPIFQESPSHLLEESPPNPCSEQLHCSKESLSSRTEAVREDLVPSESNAFLPSSVLWLSPSTALAADFRVNHVDPEEEIVEHGAMEEREMRFPTHPKESETEDQALVSSVEDILSTCLTPNLVEMESQEAPGPAVEDVGRILGSDTESWMSPLAWLEKGVNTSVMLENLRQSLSLPSMLRDAAIGTTPFSTCSVGTWFTPSAPQEKSTNTSQTGLVGTKHSTSETEQLLCGRPPDLTALSRHDLEDNLLSSLVILEVLSRQLRDWKSQLAVPHPETQDSSTQTDTSHSGITNKLQHLKESHEMGQALQQARNVMQSWVLISKELISLLHLSLLHLEEDKTTVSQESRRAETLVCCCFDLLKKLRAKLQSLKAEREEARHREEMALRGKDAAEIVLEAFCAHASQRISQLEQDLASMREFRGLLKDAQTQLVGLHAKQEELVQQTVSLTSTLQQDWRSMQLDYTTWTALLSRSRQLTEKLTVKSQQALQERDVAIEEKQEVSRVLEQVSAQLEECKGQTEQLELENSRLATDLRAQLQILANMDSQLKELQSQHTHCAQDLAMKDELLCQLTQSNEEQAAQWQKEEMALKHMQAELQQQQAVLAKEVRDLKETLEFADQENQVAHLELGQVECQLKTTLEVLRERSLQCENLKDTVENLTAKLASTIADNQEQDLEKTRQYSQKLGLLTEQLQSLTLFLQTKLKEKTEQETLLLSTACPPTQEHPLPNDRTFLGSILTAVADEEPESTPVPLLGSDKSAFTRVASMVSLQPAETPGMEESLAEMSIMTTELQSLCSLLQESKEEAIRTLQRKICELQARLQAQEEQHQEVQKAKEADIEKLNQALCLRYKNEKELQEVIQQQNEKILEQIDKSGELISLREEVTHLTRSLRRAETETKVLQEALAGQLDSNCQPMATNWIQEKVWLSQEVDKLRVMFLEMKNEKEKLMIKFQSHRNILEENLRRSDKELEKLDDIVQHIYKTLLSIPEVVRGCKELQGLLEFLS [SPAG5]	-0.134	48.2	48.4	0.87	2.82	0.306
MYGASGGRAKPERKSGAKEEAGPGGAGGGGSRVELLVFGYACKLFRDDERALAQEQGQHLIPWMGDHKILIDRYDGRGHLHDLSEYDAEYSTWNRDYQLSEEEARIEALCDEERYLALHTDLLEEEARQEEEYKRLSEALAEDGSYNAVGFTYGSDYYDPSEPTEEEEPSKQREKNEAENLEENEEPFVAPLGLSVPSDVELPPTAKMHAIIERTASFVCRQGAQFEIMLKAKQARNSQFDFLRFDHYLNPYYKFIQKAMKEGRYTVLAENKSDEKKKSGVSSDNEDDDDEEDGNYLHPSLFASKKCNRLEELMKPLKVVDPDHPLAALVRKAQADSSTPTPHNADGAPVQPSQVEYTADSTVAAMYYSYYMLPDGTYCLAPPPPGIDVTTYYSTLPAGVTVSNSPGVTTTAPPPPGTTPLPPPTTAETSSGATSTTTTTSALAPVAAIIPPPPDVQPVIDKLAEYVARNGLKFETSVRAKNDQRFEFLQPWHQYNAYYEFKKQFFLQKEGGDSMQAVSAPEEAPTDSAPEKPSDAGEDGAPEDAAEVGARAGSGGKKEASSSKTVPDGKLVKASFAPISFAIKAKENDLLPLEKNRVKLDDDSDDDEESKEGQESSSSAANTNPAVAPPCVVVEEKKPQLTQEELEAKQAKQKLEDRLAAAAREKLAQASKESKEKQLQAERKRKAALFLQTLKNPLPEAEAGKIEESPFSVEESSTTPCPLLTGGRPLPTLEVKPPDRPSSKSKDPPREEEKEKKKKKHKKRSRTRSRSPKYHSSSKSRSRSHSKAKHSLPSAYRTVRRSRSRSRSPRRRAHSPERRREERSVPTAYRVSRSPGASRKRTRSRSPHEKKKKRRSRSRTKSKARSQSVSPSKQAAPRPAAPAAHSAHSASVSPVESRGSSQERSRGVSQEKEAQISSAIVSSVQSKITQDLMAKVRAMLAASKNLQTSAS [SFSWAP]	0.468	50.4	50.6	-0.391	-0.0438	-0.526
MYH9	-0.117	53.4	52.1	-1.58	0.618	0.1
MYO10	-0.176	48.3	49.4	0.691	0.867	-0.269
MYTAIPQSGSPFPGSVQDPGLHVWRVEKLKPVPVAQENQGVFFSGDSYLVLHNGPEEVSHLHLWIGQQSSRDEQGACAVLAVHLNTLLGERPVQHREVQGNESDLFMSYFPRGLKYQEGGVESAFHKTSTGAPAAIKKLYQVKGKKNIRATERALNWDSFNTGDCFILDLGQNIFAWCGGKSNILERNKARDLALAIRDSERQGKAQVEIVTDGEEPAEMIQVLGPKPALKEGNPEEDLTADKANAQAAALYKVSDATGQMNLTKVADSSPFALELLISDDCFVLDNGLCGKIYIWKGRKANEKERQAALQVAEGFISRMQYAPNTQVEILPQGHESPIFKQFFKDWK [CAPG]	-0.0974	50.2	50.3	0.941	0.63	0.272
MYTLLSGLYKYMFQKDEYCILILGLDNAGKTTFLEQSKTRFNKNYKGMSLSKITTTVGLNIGTVDVGKARLMFWDLGGQEELQSLWDKYYAECHGVIYVIDSTDEERLAESKQAFEKVVTSEALCGVPVLVLANKQDVETCLSIPDIKTAFSDCTSKIGRRDCLTQACSALTGKGVREGIEWMVKCVVRNVHRPPRQRDIT [ARFRP1]	-0.0831		52.8	0.162	-0.992	0.0143
NARFL	-0.0938	54.2	53.8	0.41	0.802	0.0811
NAV1	0.0198	47.2	49	1.35	2.83	-0.141
NBAS	-0.169	49.8	50.1	0.362	1.51	-0.197
NCOR1	0.0133	48.5	52.2	0.817	5.94	-0.0922
NDRG1	0.00645	53.1	53.6	1.68	-0.0804	0.246
NDRG3	-0.371	52.2	52	0.668	0.934	0.351
NF1	-0.137	49.7	50.4	-0.998	-0.184	-0.315
NFIB	-0.032	54.2	53.9	1.24	1.07	0.238
NRBP1	-0.15	51.9	51.4	0.757	0.7	0.099
NUDC	-0.106	51.9	52.4	0.837	-0.681	0.405
NUP205	0.203	52.1	48.8	-4.5	-6.17	-0.671
NUP214	0.0567	50.5	49.8	-1.39	-1.03	-0.301
OXCT1	-0.0718	53	52.8	-1.63	-1.92	0.23
OXSR1	-0.146	49.1	49.6	1.02	0.906	0.197
PARP4	-0.107	50.7	49.8	1.67	0.026	-0.0707
PCM1	0.65	49.8	50.3	-0.276	0.507	-0.73
PCNT	-0.162	50.8	52.9	2.3	2.45	-0.221
PELP1	0.451	55.2	53.8	-1.93	-5.97	-1.2
